The DeepSol protein solubility set

Experiment: soluble on expression in E. coli; label from the status in PepcDB or PDB records

| Sequence | soluble on expression in E. coli |
| --- | --- |
| MSLKSLEGSWCLVLGASSGIGRAIALGLAREGVHVAGVHFDTAARAEEVEALVEEIRSLGVEARFFNTNAASKATRAELVPQLAELTGANGGIRILVHSLAFGTLVPFTPREGWDRPISVRQLEMTLDVMAHSLVYWTQDLLAAGLLRSGSKVYAMTSAGTSQHLPSYGAVSAAKSALESHVRQLAAELATSGIAVNALRAGTTVTPALQRIPEHAGYIERAAENNPHGRLTRPDDVADAVALLSRTESSWLTGNTIGIDGGELHEGHHHHHH | soluble |
| MKTLIARHKAGEHIGICSVCSAHPLVIEAALAFDRNSTRKVLIEATSNQVNQFGGYTGMTPADFREFVFAIADKVGFARERIILGGDHLGPNCWQQENVDAAMEKSVELVKAYVRAGFSKIHLDASMSCAGDPIPLAPETVAERAAVLCFAAESVATDCQREQLSYVIGTEVPVPGGEASAIQSVHITHVEDAANTLRTHQKAFIARGLTEALTRVIAIVVQPGVEFDHSNIIHYQPQEAQALAQWIENTRMVYEAHSTDYQTRTAYWELVRDHFAILKVGPALTFALREAIFALAQIEQELIAPENRSGCLAVIEEVMLDEPQYWKKYYRTGFNDSLLDIRYSLSDRIRYYWPHSRIKNSVETMMVNLQGVDIPLGMISQYLPKQFERIQSGELSAIPHQLIMDKIYDVLRAYRYGCAE | soluble |
| MKDFKLAKSKSHAIEETKPFSILLMGVDTGSEHRKSKWSGNSDSMILVTINPKTNKTTMTSLERDVLIKLSGPKNNGQTGVEAKLNAAYASGGAEMALMTVQDLLDINVDYFMQINMQGLVDLVNAVGGITVTNKFDFPISIAANEPEYKAVVEPGTHKINGEQALVYSRMRYDDPEGDYGRQKRQREVIQKVLKKILALNSISSYKKILSAVSNNMQTNIEISSKTIPNLLAYKDSLEHIKSYQLKGEDATLSDGGSYQILTKKHLLAVQNRIKKELDKKRSKTLKTSAILYEDYYGLEHHHHHH | soluble |
| MKWYTKYLQVYEKPFSEAPQEIVEEVRNKLKLLQSDNPLVTVSLIGYNEEKHLLASLWSLSEMKCKYPIEIIGTDNDSKDQTATIYEATGIPYVIEHQHSCGHARLCGLKRAKGKYHINIDSDTMYPPHYVETMVDALERPGIVAVSSLWSYIPDKEHSWVGLKIYEFIRDIHLWIQSIKRPELSVRGLVFAYRTDYARQVGIRTDIRRGEDGSLALRLKEYGNIYFIRKRKARAITGYGTISADGSLFNSFKVRAIYALKNIGRVFTRKKEYKDEDDNLIKSLEHHHHHH | soluble |
| MEDGDSAEAFRAFAAGVALQREDPSPLWVQLKNRIEHAILDGTLPENARLPSEQAMCSMFDLSRPVIRNALQALAGEGRVIKQPRKGMFVAPRAPELAFMTSALGVFDDLSAKGYKVTVKTYEFGLHPANEDERRVFKLPEGFQVIRALRVYHANETPLTHTLISLPAHRLPGFEKLDMEGRSIFGTIRELYGLTVARADRWLKGAIVPPEVAARMGVPPGGAMIAIESVAYDHDGNALEYYRAYYNSEVAPIHVATDAH | not soluble |
| YWFRSHKLERQLAEFQMQNELQYRYYAELEQKYRESRKIMHDMKNHLQAVEHLYQAKDGQEQGGAYVKDLYHMLNLLGEKYYSSNRMLNIICNDKLSLARHPAVAISVEIGDVDFSDLRDIDITTIFANLLDNALEAVEAFGEGAYLNLKIQEVHHFRVISIVNASRPGMKKEGHMGVGLENVRRTVEAYQGTMQCEIVGEEYRVSVMLPGKEDS | not soluble |
| MGDELHVIVARSVNVTHKEPPVVPDEQRREMVGALKPVDEAHLGHSEDIFIPIERIEPDIIALGYDQHHDDEQLEAALSARGIDCDICRASPLETEAADRVLSTGRIIDRILDERS | not soluble |
| RSDTIMVLSINPKEKKTELVSIPRDTKAEIAGRGTEEKINHAYAYGGPNMAVKTIEKLMNVPIDHYATIDMDGLHDMIDTLGGVDVVSNSTFTMGANHFVKGEKTHVDGDAAMDFIRSRKEDGAGGDFGRQERQQLILEAMADKLTS | not soluble |
| MGSDKIHHHHHHMNAEKSPENHNVDHEEIAKFEAVASRWWDLEGEFKPLHRINPLRLGYIAERAGGLFGKKVLDVGCGGGILAESMAREGATVTGLDMGFEPLQVAKLHALESGIQVDYVQETVEEHAAKHAGQYDVVTCMEMLEHVPDPQSVVRACAQLVKPGGDVFFSTLNRNGKSWLMAVVGAEYILRMVPKGTHDVKKFIKPAELLGWVDQTSLKERHITGLHYNPITNSFKLGPGVDVNYMLHTQNK | not soluble |
| MDISVVVPTLNGREELTGCLDALTEQVPDAEVIVVNGPSADGTTGMVRDRDDVSLLVEIADRSVTVARNAGIDRATGDVIALVHQSLSVESGWADAVKDGLSGAAQAITGPTHQQLWAGMTTETEETRTIAGRDVTYFNPGNVAFDAEVVEALDGFDEYLNVGSARDFAHRMAAGEYGVDWSTEMCVSREFEADGGIAETDWNWKYRSLAYRLVKNYNVRPTVVRRILSHAVGDAKDALFDVVRGETTPSQWLGTGQDVFGGVGSGIVDGVRARVTDRTARRNPNGRSARTNRAVTVYDWRLEHHHHHH | not soluble |
| MPIKVGINGFGRIGRMVFQALCEDGLLGTEIDVVAVVDMNTDAEYFAYQMRYDTVHGKFKYEVTTTKSSPSVAKDDTLVVNGHRILCVKAQRNPADLPWGKLGVEYVIESTGLFTAKAAAEGHLRGGARKVVISAPASGGAKTLVMGVNHHEYNPSEHHVVSNASCTTNCLAPIVHVLVKEGFGVQTGLMTTIHSYTATQKTVDGVSVKDWRGGRAAAVNIIPSTTGAAKAVGMVIPSTQGKLTGMSFRVPTPDVSVVDLTFTAARDTSIQEIDAALKRASKTYMKGILGYTDEELVSADFINDNRSSIYDSKATLQNNLPKERRFFKIVSWYDNEWGYSHRVVDLVRHMASKDRSARL | soluble |
| MAHHHHHHMMGHLTLPQLCLNVQHGKYSKKTQRPPTLSQRCVTTLISSRISRKLSPADCPTYTSTLLSAEGSTTENLKYNHRGPTTTFSATASNPIIFPN | not soluble |
| MGSDKIHHHHHHMLFPDLANKIVREVRRLIKENIIIINIQGVIIASTDIERIGQFHEGALRCAKQKKTVIITKEDERRLQGVKAGMNLPLLFHDEVIGVIGITGEPENISQYGEILRKMTELLIHENYFLEQLELEHRSYEAFVFDWLQNTDWSPSFLDRAKTLGIDLYKKKQLILFSIDRNDTMLQRKVWQHVRNLLTKEHLFIRWGNDRFILFTATNSKEQTYQFLKRLKQDCETLFSVPLYIGIGQSVTPSNMNLSYEQALQALSVSLETKNIVFNEDLRLEMCLQDISAETREQFLKRTIENLLSSPELMHTLRLFIDYNQSYKQTAEQLHIHINTLHYRLKKIEEYTGLDPKQFKDLNILYFSLLLLDNHTKKNDKTD | not soluble |
| MAIIKCDVCAYPFSNKQDPRCSKCHPKITPPSKPKNPYALPMKQQLILGPIVGIVVGLMFAACEGNRPGRATTACMLRARAQAIAAGNPNYTHAKEVSPTRAMLVFRKDGRTRNTNFFCDSLVTDREA | not soluble |
| MAHHHHHHMVWKGSRERGVQEYRKKSKGNKPTKGEKVSKKGVSSSRQPKQRELLSAKQQQQQNRKNEELRAALAGAFSTEVSSSNAGPAFDGYGKGSPTDRLQFGYAPAVAAEAVAYHSTISTDAWIEARRTRYRTAIVEQKKLRRPNCEPITSILKLQGHWRSTELFEREVHGSHAVAQDKVDDILDTFVSRQRVA | not soluble |
| MKCNMCPRACNVDRNVNTGFCGMTNDIYAARAALHMWEEPCISGEHGSGAVFFSGCTLRCIFCQNSEIAAAQVGKKITVERLSDIFLELQDKCANNINLVTATHFVPQVAEALVKAKNKGLVIPVVYNSSAYENVSTLNMLDGLVDVYLPDMKYIDSRLSAEYSKAPDYADVAKAAIHEMVRQTGKLEFFIEDDELVKSGRVEAGIMKKGVIVRHLVLPGTTKDSKAVIKYLIDTYGDDIYISIMSQYTPFDRLKKHPLLSRKVTRKEYNSVVDYAIDCGINNGFIQEGDVAEESFIPEFDYEGI | not soluble |
